From patent US20240024426A1, “HYPOTENSIVE PHARMACEUTICAL COMPOSITION COMPRISING TRIPLE ACTIVATOR HAVING ACTIVITY FOR ALL OF GLUCAGON, GLP-1, AND GIP RECEPTORS” (HANMI PHARM. CO., LTD., priority 2020, published 2024)
Bridges are numbered along the chain shown (N, C = ends). Where no end group is shown, it is not given here. [ ]: non-standard residue; d: D form. The star is where a group is joined. Acetyl(2-(4-imidazolyl)) = O=C(Cc1c[nH]cn1)*; Aib = CC(C)(N)C(=O)O

Legend:
Assay in all cases: cell-based or functional assay
human GIP receptor = target: T1, human GIP receptor (human, UniProt P48546 22-466)
T1 sequence (looked up): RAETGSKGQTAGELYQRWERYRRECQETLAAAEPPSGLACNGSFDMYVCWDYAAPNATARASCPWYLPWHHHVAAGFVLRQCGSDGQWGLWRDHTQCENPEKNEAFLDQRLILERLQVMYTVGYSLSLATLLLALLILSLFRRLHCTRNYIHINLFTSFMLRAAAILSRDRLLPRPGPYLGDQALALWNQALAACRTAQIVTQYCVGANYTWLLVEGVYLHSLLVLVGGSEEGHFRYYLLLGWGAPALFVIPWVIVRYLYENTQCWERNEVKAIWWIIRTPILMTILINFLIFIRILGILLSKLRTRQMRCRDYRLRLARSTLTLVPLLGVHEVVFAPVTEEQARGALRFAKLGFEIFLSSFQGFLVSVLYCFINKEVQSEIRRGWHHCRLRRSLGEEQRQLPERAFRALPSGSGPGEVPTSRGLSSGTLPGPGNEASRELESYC

human GLP-1 receptor = human GLP-1 receptor (human, UniProt P43220 24-463)
human GCG receptor = human GCG receptor (human, UniProt P47871 26-477)
human GCG receptor, sequence (P47871 26-477): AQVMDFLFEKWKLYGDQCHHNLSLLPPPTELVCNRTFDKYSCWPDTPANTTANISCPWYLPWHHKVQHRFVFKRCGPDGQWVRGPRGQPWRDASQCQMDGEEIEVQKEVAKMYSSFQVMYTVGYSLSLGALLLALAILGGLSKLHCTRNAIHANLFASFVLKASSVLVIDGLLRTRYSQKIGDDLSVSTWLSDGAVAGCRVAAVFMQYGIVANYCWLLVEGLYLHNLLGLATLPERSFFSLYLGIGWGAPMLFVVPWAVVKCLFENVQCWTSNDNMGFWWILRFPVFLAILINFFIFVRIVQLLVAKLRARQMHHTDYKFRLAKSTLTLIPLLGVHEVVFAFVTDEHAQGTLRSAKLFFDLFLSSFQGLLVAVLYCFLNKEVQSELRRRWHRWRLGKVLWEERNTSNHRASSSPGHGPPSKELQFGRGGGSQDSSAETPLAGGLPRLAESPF

Row | Binder | In vitro activity compared with native peptide (%) vs. GIP (human GIP receptor) [%] | In vitro activity compared with native peptide (%) vs. GLP-1 (human GLP-1 receptor) [%] | In vitro activity compared with native peptide (%) vs. Glucagon (human GCG receptor) [%]
1 | Y[Aib]QGTFTSDYSKYLDECRAKEFVQWLLAQKGKKNDWKHNIT (bridge 16-20) [Triple agonist of SEQ ID NO: 23] | < 0.1 | 4.01 | 9.3
2 | Y[Aib]QGTFTSDYSKYLDECRAKEFVQWLLDHHPSSGQPPPS (bridge 16-20) [Triple agonist of SEQ ID NO: 21] | 22.7 | 17.8 | 267
3 | Y[Aib]QGTFTSDYSKALDEKAAKDFVNWLLDQHPSSGQPPPSC (bridge 16-20) [Triple agonist of SEQ ID NO: 102] | 58 | 23.3 | 29.5
4 | {Acetyl(2-(4-imidazolyl))}-GEGTFISDLSKYMDEQAVQLFVEWLMAGGPSSGAPPPSHG [Triple agonist of SEQ ID NO: 12] | < 0.1 | 0.4 | < 0.1
5 | H[Aib]QGTFTSDYSKYLDERACQDFVQWLLDQGGPSSGAPPPS [Triple agonist of SEQ ID NO: 27] | 0.9 | 83.1 | 0.8
6 | {Acetyl(2-(4-imidazolyl))}-GQGTFTSDLSKQMDSEAQQLFIEWLKNGGPSSGAPPPSHG [Triple agonist of SEQ ID NO: 16] | < 0.1 | 2.1 | < 0.1
7 | H[Aib]QGTFTSDVSSYLDGQAQKEFIAWLVKGC [Triple agonist of SEQ ID NO: 2] | < 0.1 | 5.9 | < 0.1
8 | H[Aib]QGTFTSDYSKYLDEKACKEFVQWLLAQ (bridge 16-20) [Triple agonist of SEQ ID NO: 31] | 2.4 | 135 | 2.2
9 | {Acetyl(2-(4-imidazolyl))}-GQGTFTSDYSIQLDEIAVRDFVEWLKNGGPSSGAPPPSHG [Triple agonist of SEQ ID NO: 14] | < 0.1 | 28 | < 0.1
10 | Y[Aib]QGTFTSDYSKALDEKAAKEFVQWLLDQHPSSGQPPPSC (bridge 16-20) [Triple agonist of SEQ ID NO: 100] | 118 | 42.2 | 12.7
11 | Y[Aib]QGTFTSDYSKYLDECRAKEFVQWLKNGGPSSGAPPPS (bridge 16-20) [Triple agonist of SEQ ID NO: 24] | < 0.1 | 41.2 | 9.3
12 | H[Aib]QGTFTSDYSKYLDEKAQKEFVQWLLDTC (bridge 16-20) [Triple agonist of SEQ ID NO: 30] | 0.8 | 142 | 0.7
13 | H[Aib]QGTFTSDYSKYLDEKAAKEFVQWLLNTC (bridge 16-20) [Triple agonist of SEQ ID NO: 29] | < 0.1 | 38.5 | 6
14 | [Acetyl(2-(4-imidazolyl))]GQGTFTSDLSKQMDSERAREFIEWLKNTGPSSGAPPPSHG [Triple agonist of SEQ ID NO: 18] | < 0.1 | < 0.1 | < 0.1
15 | Y[Aib]QGTFTSDYSKALDEKAAKDFVNWLLDHHPSSGQPPPSC (bridge 16-20) [Triple agonist of SEQ ID NO: 99] | 57.7 | 20.9 | 14.9
16 | H[Aib]QGTFTSDYSKYLDEKACKDFVQWLLDGGPSSGAPPPS (bridge 16-20) [Triple agonist of SEQ ID NO: 32] | 8.8 | 151 | 1.7
17 | {Acetyl(2-(4-imidazolyl))}-GEGTFISDYSIQLDEIAVQDFVEWLLAQKPSSGAPPPSHG [Triple agonist of SEQ ID NO: 13] | < 0.1 | < 0.1 | < 0.1
18 | H[Aib]QGTFTSDYSKYLDEKRAQEFVCWLLAQKGKKNDWKHNIT [Triple agonist of SEQ ID NO: 28] | < 0.1 | 17.2 | 1.6
19 | Y[Aib]QGTFTSDYSKCLDEKRAKEFVQWLLDHHPSSGQPPPS (bridge 16-20) [Triple agonist of SEQ ID NO: 22] | 59.7 | 20.1 | 140
20 | Y[Aib]QGTFTSDYSKALDEKAAKEFVNWLLDQHPSSGQPPPSC (bridge 16-20) [Triple agonist of SEQ ID NO: 101] | 40.1 | 23.2 | 13.9
21 | Y[Aib]QGTFTSDYSKALDEKAAKEFVNWLLDHHPSSGQPPPSC (bridge 16-20) [Triple agonist of SEQ ID NO: 98] | 47.1 | 28.1 | 8.2
22 | H[Aib]QGTFTSDVSSYLLGQAAKQFIAWLVKGGGPSSGAPPPSC [Triple agonist of SEQ ID NO: 3] | < 0.1 | 1.8 | < 0.1
23 | H[Aib]QGTFTSDCSKYLDERAAQDFVQWLLDGGPSSGAPPPS [Triple agonist of SEQ ID NO: 25] | < 0.1 | 82.6 | 0.1
24 | {Acetyl(2-(4-imidazolyl))}-GQGTFTSDLSKQMDEERAREFIEWLLAQKPSSGAPPPSHG [Triple agonist of SEQ ID NO: 17] | < 0.1 | 0.2 | < 0.1
25 | H[Aib]QGTFTSDCSKYLDSRAAQDFVQWLLDGGPSSGAPPPS [Triple agonist of SEQ ID NO: 26] | < 0.1 | 64.5 | 0.2
26 | Y[Aib]QGTFTSDYSKYLDEKRAKEFVQWLLDCHPSSGQPPPS (bridge 16-20) [Triple agonist of SEQ ID NO: 97] | 2.6 | 10.5 | 62.8
27 | {Acetyl(2-(4-imidazolyl))}-GEGTFTSDLSKYLDSRRQQLFVQWLKAGGPSSGAPPPSHG [Triple agonist of SEQ ID NO: 11] | < 0.1 | 1.4 | < 0.1
28 | [Acetyl(2-(4-imidazolyl))]GQGTFTSDLSIQYEEEAQQDFVEWLKDTGPSSGAPPPSHG [Triple agonist of SEQ ID NO: 20] | < 0.1 | < 0.1 | < 0.1
29 | [Acetyl(2-(4-imidazolyl))]GQGTFTSDLSIQYDSEHQRDFIEWLKDTGPSSGAPPPSHG [Triple agonist of SEQ ID NO: 19] | < 0.1 | < 0.1 | < 0.1
